Test results published in patent publication US20130273062A1, “ANTIBODIES AGAINST HUMAN CD39 AND USE THEREOF” (OREGA BIOTECH, priority 2010, published 2013).

B1: BY40: murine CD39 antibody from hybridoma CNCM I-3889; VH SEQ ID NO: 1, VL SEQ ID NO: 5 (antibody, listed as Mus musculus)
VH: TRVKKPRETVKISCKASGYTFTHYGMNWVKQAPGKGLKWMGWINTYTGEPTYADDFKGRFAFSLEASVSTAYLQINNLKNEDTATYFCARRRYEGNYVFYYFDYWGQGTTLTVSSAKTTPPSVYPLAPGSAAQTNSMVTLGCLVKGYFPEQVTVTWNSGSLSSGVHTFPAVLQSDLYTLSSSVTVPS
light: DIQMTQSPASLSASVGETVTITCRASENIYSYFSWYQQKQGKSPQLLVYTAKTLAEGVPSRFSGSGSGTQFSLKINSLQPEDFGSYYCQHHYVTPYTFGGGTKLEIKRADAAPTVSIFPPSSEQLTSGGASVVCFLNNFYPKDINVKWKIDGSERQNGVLNSWTD
B2: BA54g: CD39 monoclonal antibody from hybridoma CNCM I-4171; VH SEQ ID NO: 11, VL SEQ ID NO: 15 (antibody, listed as Mus musculus, V domains shown)
VH: DVQLVESGGGLVQPGGSRKLSCAASGFTFSSFGMHWVRQAPEKGLEWVAYISSGSSIIYYADTVKGRFTISRDNPKNTLFLQMTSLGSEDTAMYYCARWSTTVVATDYWGQGTTLTVS
VL: NIVMTQSPKSMSMSVGERVTLTCKASENVVTYVSWYQQKPEQSPKLLIYGASNRYTGVPDRFTGSGSATDFTLTISSVQAEDLADYHCGQGYSYPYTFGGGTKLEIKR

Assays:
[1] = tested on: CD4 and CD8 T cells (PBMC) cultured with CD39-expressing SK-MEL-5 melanoma cells; experiment: Inhibition of melanoma cell-mediated suppression: proliferation of CFSE-labelled T cells co-cultured with irradiated SK-MEL-5; type: cell-based, human; conditions: CFSE-labelled PBMC + irradiated SK-MEL-5, 5 days, BY40 5 μg/mL, POM-1 100 or 250 μM, flow cytometry; for CD4 T cell proliferation: FIG. 4A; for CD8 T cell proliferation: FIG. 4B
Protocol: FIG. 4: CD39 antibody (BY40) restores T cell responses against melanoma cells. 5×10^4 CFSE-labelled PBMC were cultured in the presence of 5×10^3 irradiated (100 Gy) SK-MEL-5 (NT). POM-1 (100 or 250 μM), BY40 or control isotype antibody D6212 (5 μg/mL) were added at the beginning of the culture and after 2 days of culture. After 5 days of culture, proliferation of CFSE-labelled CD4 (A) and CD8 (B) T cells was analysed by flow cytometry. Experiment was performed in duplicate and results are representative of 2 independent experiments.
5×10^4 CFSE-labelled PBMC were cultured in the presence of 5×10^3 irradiated (100 Gy) SK-MEL-5 (NT). POM-1 (100 or 250 μM), BY40 or control isotype antibody D6212 (5 μg/mL) were added at the beginning of the culture and after 2 days of culture. After 5 days of culture, proliferation of CFSE-labelled CD4 (A) and CD8 (B) T cells was analysed by flow cytometry. Experiment was performed in duplicate and results are representative of 2 independent experiments.

[2] = target: T1, CD39 ATPase activity of lymphoma cells (Ramos) (Homo sapiens, UniProt P49961); experiment: Inhibition of lymphoma-CD39 enzymatic (ATPase) activity, phosphate release measured with Malachite green; type: cell-based; conditions: Ramos cells cultured with increasing doses of mAb for 16 h, then 100 μM ATP for 15 min; FIG. 7
T1 construct: BL41, B104 and Ramos express CD39 at their cell surface; endogenous in cells; host or cells: Ramos Burkitt lymphoma cells
T1 sequence (P49961 1-510): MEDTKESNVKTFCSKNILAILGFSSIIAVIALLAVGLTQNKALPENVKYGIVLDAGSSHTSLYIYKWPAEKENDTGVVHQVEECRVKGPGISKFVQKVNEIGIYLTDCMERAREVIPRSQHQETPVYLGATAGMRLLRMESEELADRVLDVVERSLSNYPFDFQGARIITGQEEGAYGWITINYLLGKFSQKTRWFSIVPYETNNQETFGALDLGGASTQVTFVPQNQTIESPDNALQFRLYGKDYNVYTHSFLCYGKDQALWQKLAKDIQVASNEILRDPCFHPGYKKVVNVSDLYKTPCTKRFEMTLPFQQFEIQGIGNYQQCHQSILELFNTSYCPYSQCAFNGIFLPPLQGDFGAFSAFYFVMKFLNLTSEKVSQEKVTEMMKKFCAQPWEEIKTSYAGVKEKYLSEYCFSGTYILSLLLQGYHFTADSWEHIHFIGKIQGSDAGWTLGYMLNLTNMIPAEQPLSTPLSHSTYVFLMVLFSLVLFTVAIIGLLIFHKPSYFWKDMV
Protocol: (§1) FIG. 7: CD39 antibodies inhibit CD39 ATPase activity of lymphoma cells. 1×10^5 lymphoma cells (Ramos) were cultured in complete RPMI medium alone or in presence of BA54g, BY12 or BY40 mAbs, at the indicated concentrations, for 16 h. Cells were then washed three times in phosphate free buffer (10 mM glucose, 20 mM Hepes, 5 mM KCl, 120 mM NaCl, 2 mM CaCl2) and resuspended in the same buffer supplemented with 100 μM ATP for 15 min. Phosphate concentration in supernatants was measured after addition of Malachite green/polyvinylalcohol /ammonium mobylate solution for 20 min by a spectrophotometer at 620 nm and compared against a standard curve. Results are the mean of two independent experiments.
as §1, with “1×10^5” for “FIG. 7: CD39 antibodies inhibit CD39 ATPase activity of lymphoma cells. 1×10^5”, “KC1,” for “KCl,”

[3] = target: T2, CD39 ATPase activity of melanoma cells (SK-MEL-5) (Homo sapiens, UniProt P49961); experiment: Inhibition of melanoma-CD39 enzymatic (ATPase) activity, phosphate release measured with Malachite green; type: cell-based; conditions: SK-MEL-5 cells cultured with mAb for 16 h, then 100 μM ATP for 15 min; FIG. 3
T2 construct: SK-MEL-5 and SK-MEL-28 cell lines display membranous expression of CD39; endogenous in cells; host or cells: SK-MEL-5 melanoma cells
T2 sequence (P49961 1-510): T1 sequence (P49961 1-510)
Protocol: FIG. 3: CD39 (BA54g) antibody inhibits CD39 ATPase activity of melanoma cells. 1×10^5 melanoma cells (SK-MEL-5) were cultured in complete RPMI medium alone or in presence of BA54g mAb for 16 h. Cells were then washed three times in phosphate free buffer (10 mM glucose, 20 mM Hepes, 5 mM KCl, 120 mM NaCl, 2 mM CaCl2) and resuspended in the same buffer supplemented with 100 μM ATP for 15 min. Phosphate concentration in supernatants was measured after addition of Malachite green/polyvinylalcohol/ammonium mobylate solution for 20 min by a spectrophotometer at 620 nm and compared against a standard curve. Experiment was performed in triplicate.
Protocol: 1×10^5 melanoma cells (SK-MEL-5) were cultured in complete RPMI medium alone or in presence of BA54g mAb for 16 h. Cells were then washed three times in phosphate free buffer (10 mM glucose, 20 mM Hepes, 5 mM KCl, 120 mM NaCl, 2 mM CaCl2) and resuspended in the same buffer supplemented with 100 μM ATP for 15 min Phosphate concentration in supernatants was measured after addition of Malachite green/polyvinylalcohol/ammonium mobylate solution for 20 min by a spectrophotometer at 620 nm and compared against a standard curve. Experiment was performed in triplicate.

| Molecule | CD4 T cell proliferation [1] | CD8 T cell proliferation [1] | CD39 activity of lymphoma cells [2] | CD39 enzymatic activity of melanoma cells [3] |
| --- | --- | --- | --- | --- |
| [Na+].[Na+].[Na+].[Na+].[Na+].[Na+].[O]=[W](=[O])([O-])[O-].[O]=[W](=[O])([O-])[O-].[O]=[W](=[O])([O-])[O-].[O]=[W](=[O])=[O].[O]=[W](=[O])=[O].[O]=[W](=[O])=[O].[O]=[W](=[O])=[O].[O]=[W](=[O])=[O].[O]=[W](=[O])=[O].[O]=[W](=[O])=[O].[O]=[W](=[O])=[O].[O]=[W](=[O])=[O] [POM-1, sodium metatungstate, reference compound] | increased | increased | – | – |
| B1 | increased | increased | inhibited CD39 activity in a dose dependant manner | – |
| B2 | – | – | inhibited CD39 activity in a dose dependant manner | inhibits CD39 enzymatic activity in a dose dependant manner |
